The values below come from US12012599B2, “Compositions and methods for modulating left-right differentiation factor (LEFTY) and bone morphogenic factor (BMP)” (CZ Biohub SF LLC, priority 2018, dated 2024).

Assay [1] has as its target T1, BMP7-BMPR2 interaction (Homo sapiens, UniProt Q13873).
T1 construct: endogenous in cells; host or cells: MDA-MB-231
T1 sequence (Q13873 27-1038): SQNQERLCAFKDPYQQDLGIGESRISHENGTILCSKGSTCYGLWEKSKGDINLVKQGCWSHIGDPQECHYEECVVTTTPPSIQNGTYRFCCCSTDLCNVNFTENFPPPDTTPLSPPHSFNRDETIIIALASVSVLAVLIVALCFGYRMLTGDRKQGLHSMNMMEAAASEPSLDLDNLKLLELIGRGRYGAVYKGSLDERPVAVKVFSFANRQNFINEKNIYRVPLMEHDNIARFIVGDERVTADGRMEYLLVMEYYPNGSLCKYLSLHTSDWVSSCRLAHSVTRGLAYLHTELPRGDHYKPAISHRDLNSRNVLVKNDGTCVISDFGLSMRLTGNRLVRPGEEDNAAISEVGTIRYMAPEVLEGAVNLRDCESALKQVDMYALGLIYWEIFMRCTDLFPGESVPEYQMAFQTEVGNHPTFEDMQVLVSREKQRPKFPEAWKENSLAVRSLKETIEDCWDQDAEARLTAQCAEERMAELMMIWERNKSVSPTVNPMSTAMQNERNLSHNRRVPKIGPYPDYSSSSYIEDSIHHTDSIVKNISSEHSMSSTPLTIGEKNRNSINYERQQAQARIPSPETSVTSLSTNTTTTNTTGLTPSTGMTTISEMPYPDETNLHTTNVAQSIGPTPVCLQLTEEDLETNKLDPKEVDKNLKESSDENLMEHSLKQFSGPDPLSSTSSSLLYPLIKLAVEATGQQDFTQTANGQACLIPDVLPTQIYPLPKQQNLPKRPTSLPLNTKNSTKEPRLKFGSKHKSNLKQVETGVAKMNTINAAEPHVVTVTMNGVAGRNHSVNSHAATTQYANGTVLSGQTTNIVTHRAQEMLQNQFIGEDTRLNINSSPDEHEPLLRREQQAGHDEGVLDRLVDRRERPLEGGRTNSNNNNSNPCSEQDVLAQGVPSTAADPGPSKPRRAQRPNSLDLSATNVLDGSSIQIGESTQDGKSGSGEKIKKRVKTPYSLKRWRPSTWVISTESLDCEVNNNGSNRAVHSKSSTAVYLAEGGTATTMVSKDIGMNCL
Description: Proximity Ligation Assay of BMP7-BMPR2 interaction in MDA-MB-231. The class given is cell-based. The following applies: 50 ng/mL BMP7 30 minutes, exogenous LEFTY 200 ng/mL. How it is done:
FIGS. 20 and 21 are data from an experiment in which the breast cancer cell line MDA-MB-231 was plated and serum starved for 24 hours. 50 ng/mL BMP7 was added for 30 minutes to activate pSMAD5, either in the absence or presence of exogenous LEFTY (200 ng/mL). LEFTY-BMPR2 interaction, BMP7-BMPR2 interaction (as visualized by Proximity Ligation Assay, red), pSMAD5 status (As visualized by Immunofluorescence, green) were monitored and captured.
For the PLA assay (DUOLink, OLink Biosciences, Sigma-Aldrich #DUO92102), cells were seeded and treated on 13 mm glass coverslips previously coated with Poly-L-Lysine (Millipore). The cells were fixed with ice cold 100% Methanol for 5 minutes at −20° C. and then rehydrated thrice in PBS for 5 min each. Coverslips were blocked for 30 min with PBS+3% BSA and then incubated with appropriate dilution of primary antibodies in PBS+1% BSA for 1 h in a moist environment at room temperature. Rabbit anti-LEFTY1 and Thermo mouse anti-BMPR2 were used to characterize the interaction between LEFTY and BMPR2 (Table S2). […]
Breast cancer cell line MDA-MB-231 was plated and serum starved for 24 hours. […] LEFTY-BMPR2 interaction, BMP7-BMPR2 interaction (as visualized by Proximity Ligation Assay, red), pSMAD5 status (As visualized by Immunofluorescence, green) were monitored and captured.

Assay [2] has as its system pSMAD5 activation. Description: pGL3 BRE-luciferase reporter in 3T3-L1 fibroblasts. The class given is cell-based. The following applies: 16 hours. How it is done:
FIGS. 7A-7E. LEFTY1 interaction with BMPR2 inhibits the phosphorylation of SMAD5. […] Ten different fields were counted per condition (n=3). […] 48 hours after transfection, cells were washed and incubated with different concentrations of BMP7 (from 0-800 ng/ml) for 16 hours prior to collection of the cells. […] 48 hours after transfection, cells were washed and incubated with different concentrations of LEFTY1 (from 0-200 ng/ml) for 16 hours prior to collection of the cells. […] 48 hours after transfection, cells were washed and incubated with different concentrations of BMP7 and LEFTY1 at the indicated concentrations for 16 hours prior to collection of the cells. Data are represented as median±S.D. Statistical analysis, one-way ANOVA with Dunnet's adjustment, *p<0.05; **p<0.01; ****p<0.0001.
FIGS. 7F-7I: pSMAD5 activation in the presence of LEFTY1, BMP2 and BMP4. […] 48 hours after transfection, cells were washed and incubated with different concentrations of BMP2 (from 0-800 ng/ml) for 16 hours prior to collection of the cells. […] 48 hours after transfection, cells were washed and incubated with different concentrations of BMP2 and LEFTY1 for 16 hours prior to collection of the cells. FIG. 7H and FIG. 7I show 3T3-L1 fibroblasts transfected with pGL3 BRE-luciferase plasmid. […]
We also evaluated whether LEFTY1 could inhibit pSMAD5 activation induced by other BMPs. […]

B1: LEFTY1: left-right determination factor 1, secreted TGF-β superfamily protein; generic LEFTY may mean LEFTY1 or LEFTY2 (protein, UniProt O75610 77-366, looked up)
Left-right determination …: RFSQSFREVAGRFLALEASTHLLVFGMEQRLPPNSELVQAVLRLFQEPVPKAALHRHGRLSPRSARARVTVEWLRVRDDGSNRTSLIDSRLVSVHESGWKAFDVTEAVNFWQQLSRPRQPLLLQVSVQREHLGPLASGAHKLVRFASQGAPAGLGEPQLELHTLDLGDYGAQGDCDPEAPMTEGTRCCRQEMYIDLQGMKWAENWVLEPPGFLAYECVGTCRQPPEALAFKWPFLGPRQCIASETDSLPMIVSIKEGGRTRPQVVSLPNMRVQKCSCASDGALVPRRLQP
Turning to B1, the BMP7-BMPR2 interaction entry in assay [1] was “reduces BMP7-BMPR2 interactions”. Further, in assay [2], the “inhibition of BMP7-mediated pSMAD5 activation” value is recorded as “inhibit BMP7-mediated pSMAD5 activation in a dose-dependent fashion” and the “inhibition of pSMAD5 activation induced by BMP2 or BMP4” value is “less of an inhibitory effect”.
